Test results taken from paper PMC5159797.

Key:
[1] = biological target: MBP-Kif2b-NT; assay: GST pull-down, anti-MBP blot quantified; conditions: purified MBP-Kif2b deletions; parent: 1.0; read off a plot
[2] = biological target: MBP-Kif2b-CT; assay: GST pull-down, anti-MBP blot quantified; conditions: purified MBP-Kif2b deletions; n = 3; parent: 1.0; read off a plot

Row | Substance | ratio to parent [1] | ratio to parent [2]
1 | GST-SKAP (from UniProt Q9Y448) S232A; S237A; T294A | 1.1 | 0.42
2 | GST-SKAP (from UniProt Q9Y448) S232E; S237E; T294E | 15 | 0.87
